# What was measured:
# Msx2 = Msx2 (UniProt Q03358 1-267); experiment: EMSA
# Dlx2 = Dlx2 (UniProt P40764 1-332); experiment: EMSA
# Dlx2, sequence (P40764 whole entry): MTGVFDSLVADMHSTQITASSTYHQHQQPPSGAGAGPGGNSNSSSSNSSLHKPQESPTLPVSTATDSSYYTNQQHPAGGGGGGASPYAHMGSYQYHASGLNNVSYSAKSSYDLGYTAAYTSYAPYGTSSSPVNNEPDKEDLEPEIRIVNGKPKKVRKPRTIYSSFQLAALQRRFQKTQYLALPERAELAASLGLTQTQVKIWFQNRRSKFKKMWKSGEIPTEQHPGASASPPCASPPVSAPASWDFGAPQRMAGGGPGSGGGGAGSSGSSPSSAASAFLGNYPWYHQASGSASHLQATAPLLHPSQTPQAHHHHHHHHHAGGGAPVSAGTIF
# Msx2, sequence (Q03358 whole entry): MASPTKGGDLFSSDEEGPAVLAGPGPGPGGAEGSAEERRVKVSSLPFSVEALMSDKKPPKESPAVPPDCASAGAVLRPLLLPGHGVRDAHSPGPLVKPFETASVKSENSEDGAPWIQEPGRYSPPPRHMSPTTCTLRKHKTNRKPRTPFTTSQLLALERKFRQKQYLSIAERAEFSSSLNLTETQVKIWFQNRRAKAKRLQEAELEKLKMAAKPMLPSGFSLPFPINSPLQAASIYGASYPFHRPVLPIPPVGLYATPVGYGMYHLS
binder,measurement,setting,value
Msx2 promoter Dlx2 site probe (dsDNA) DNA 1: GATCCGGGTAGAGATTAGTTGAATATCCCTTGGGGATC DNA 2: GATCCCCAAGGGATATTCAACTAATCTCTACCCGGATC,binding result,Msx2,binds
same,binding result,Dlx2,binds

# From publication PMC1635299
